One test deals with laminin. Description: IdeS cleavage of other human proteins: laminin. The format is biochemical.
Test [1] has as its target T1, cystatin C (Mus musculus, UniProt P21460).
T1 sequence (P21460 21-140): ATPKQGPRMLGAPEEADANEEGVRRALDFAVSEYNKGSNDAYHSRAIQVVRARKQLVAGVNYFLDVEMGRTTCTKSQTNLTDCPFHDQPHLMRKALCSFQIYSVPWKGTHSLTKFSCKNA
Description: IdeS incubation with mouse cystatin C. The format is biochemical.

In the next test the target is T2, cystatin D (Homo sapiens, UniProt P28325).
T2 sequence (P28325 21-142): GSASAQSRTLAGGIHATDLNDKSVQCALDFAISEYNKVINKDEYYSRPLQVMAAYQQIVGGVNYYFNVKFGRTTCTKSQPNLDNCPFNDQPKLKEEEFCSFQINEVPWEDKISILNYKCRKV
Description: IdeS cleavage of other human proteins: cystatin D. The format is biochemical.

For a further test, the target named is lactoferrin (Homo sapiens, UniProt P02788). Description: IdeS cleavage of other human proteins: lactoferrin. The format is biochemical.
lactoferrin, sequence (P02788 20-710): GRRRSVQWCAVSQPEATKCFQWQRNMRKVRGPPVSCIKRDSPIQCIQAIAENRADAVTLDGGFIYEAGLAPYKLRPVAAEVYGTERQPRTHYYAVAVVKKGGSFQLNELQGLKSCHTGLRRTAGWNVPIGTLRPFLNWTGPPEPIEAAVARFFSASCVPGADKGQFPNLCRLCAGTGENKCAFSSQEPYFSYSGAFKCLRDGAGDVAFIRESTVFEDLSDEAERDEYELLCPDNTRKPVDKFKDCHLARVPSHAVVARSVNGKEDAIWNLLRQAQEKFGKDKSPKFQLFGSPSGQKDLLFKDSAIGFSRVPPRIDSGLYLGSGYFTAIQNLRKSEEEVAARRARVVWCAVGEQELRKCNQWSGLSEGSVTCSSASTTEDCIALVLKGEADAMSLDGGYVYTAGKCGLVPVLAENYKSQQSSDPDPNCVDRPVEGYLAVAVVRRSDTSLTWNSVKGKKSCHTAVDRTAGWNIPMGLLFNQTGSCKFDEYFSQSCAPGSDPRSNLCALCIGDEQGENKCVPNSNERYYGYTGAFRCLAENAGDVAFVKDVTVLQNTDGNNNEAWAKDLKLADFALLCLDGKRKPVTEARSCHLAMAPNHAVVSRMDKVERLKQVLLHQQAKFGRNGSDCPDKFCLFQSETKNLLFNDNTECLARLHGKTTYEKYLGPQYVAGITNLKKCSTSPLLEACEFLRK
For another test, the target named is albumin (Homo sapiens, UniProt P02768). Description: IdeS cleavage of other human proteins: albumin. The format is biochemical.
For the next test, the system named is human IgM. Description: IdeS cleavage assay of Ig classes: IgM. It counts as biochemical. As to conditions: purified IdeS, 2 h at 37° C. The procedure: (§1) For standard IdeS activity assays, bacteria cultures were grown to OD620=0.4. Bacteria were pelleted by centrifugation and supernatants were sterile-filtered through a 0.22 μm membrane (Millipore) prior to use. For activity assays, […] of supernatant were mixed with 5 μl of IgG (10 mg/ml, Sigma) and the volume was adjusted with PBS to 100 μl. For screening of IdeS activity in different S. progenes strains, E64 was added to a final concentration of 40 μM. The mixtures were incubated at 37° C. for 30 min and samples were analyzed by 12% SDS-PAGE. For cleavage assays of different classes of Ig, purified IdeS (0.3 μg/ml) was incubated with 3 μg Ig for 2 h at 37° C., and analyzed by 12% SDS-PAGE analysis.

A further test concerns the target T3, H-kininogen (Homo sapiens, UniProt P01042).
T3 sequence (P01042 19-644): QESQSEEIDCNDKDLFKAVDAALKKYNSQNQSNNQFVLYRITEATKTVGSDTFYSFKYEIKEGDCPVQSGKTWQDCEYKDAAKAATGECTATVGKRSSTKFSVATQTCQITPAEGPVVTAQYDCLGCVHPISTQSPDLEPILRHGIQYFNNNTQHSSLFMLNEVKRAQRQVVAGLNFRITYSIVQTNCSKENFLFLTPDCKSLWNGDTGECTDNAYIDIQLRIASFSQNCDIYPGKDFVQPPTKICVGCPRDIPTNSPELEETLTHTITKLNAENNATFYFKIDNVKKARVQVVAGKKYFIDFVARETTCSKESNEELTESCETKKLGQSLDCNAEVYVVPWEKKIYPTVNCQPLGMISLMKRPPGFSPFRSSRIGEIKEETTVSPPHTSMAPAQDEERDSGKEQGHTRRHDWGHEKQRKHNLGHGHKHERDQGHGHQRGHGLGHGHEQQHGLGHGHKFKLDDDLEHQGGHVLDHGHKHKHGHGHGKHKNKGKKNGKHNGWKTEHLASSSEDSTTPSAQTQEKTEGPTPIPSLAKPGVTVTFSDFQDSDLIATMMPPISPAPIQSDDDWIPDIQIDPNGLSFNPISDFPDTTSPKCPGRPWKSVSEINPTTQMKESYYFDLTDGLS
Description: IdeS cleavage of other human proteins: H-kininogen. The format is biochemical.

The next test addresses aprotinin (Bos taurus, UniProt P00974). Description: IdeS cleavage of other human proteins: aprotinin. It counts as biochemical.
Another test concerns murine IgG. Description: IdeS species restrictions: murine IgG. The format is biochemical.
Test [2] addresses T4, cystatin C (Rattus norvegicus, UniProt P14841).
T4 sequence (P14841 21-140): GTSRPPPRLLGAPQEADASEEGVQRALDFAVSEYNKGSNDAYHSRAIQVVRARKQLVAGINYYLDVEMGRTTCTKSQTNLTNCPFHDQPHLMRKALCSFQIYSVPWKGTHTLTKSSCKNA
Description: IdeS incubation with rat cystatin C. It counts as biochemical.

Test [3] deals with T5, cystatin C (Gallus gallus, UniProt P01038).
T5 sequence (P01038 24-139): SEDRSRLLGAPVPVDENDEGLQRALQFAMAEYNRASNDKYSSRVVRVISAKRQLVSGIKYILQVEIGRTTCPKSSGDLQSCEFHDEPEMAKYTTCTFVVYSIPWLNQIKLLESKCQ
Description: IdeS incubation with chicken cystatin C. The format is biochemical.

A further test has as its system human IgE. Description: IdeS cleavage assay of Ig classes: IgE. The format is biochemical. As to conditions: purified IdeS, 2 h at 37° C. As for the experimental part:
as §1

A further test relates to rabbit IgG. Description: IdeS species restrictions: rabbit IgG. The format is biochemical.
A further test concerns IgG2. Description: IdeS activity against IgG2. The format is biochemical, human.
In a further test the target is fibronectin (Homo sapiens, UniProt P02751). Description: IdeS cleavage of other human proteins: fibronectin. The format is biochemical.
fibronectin, sequence (P02751 32-2477): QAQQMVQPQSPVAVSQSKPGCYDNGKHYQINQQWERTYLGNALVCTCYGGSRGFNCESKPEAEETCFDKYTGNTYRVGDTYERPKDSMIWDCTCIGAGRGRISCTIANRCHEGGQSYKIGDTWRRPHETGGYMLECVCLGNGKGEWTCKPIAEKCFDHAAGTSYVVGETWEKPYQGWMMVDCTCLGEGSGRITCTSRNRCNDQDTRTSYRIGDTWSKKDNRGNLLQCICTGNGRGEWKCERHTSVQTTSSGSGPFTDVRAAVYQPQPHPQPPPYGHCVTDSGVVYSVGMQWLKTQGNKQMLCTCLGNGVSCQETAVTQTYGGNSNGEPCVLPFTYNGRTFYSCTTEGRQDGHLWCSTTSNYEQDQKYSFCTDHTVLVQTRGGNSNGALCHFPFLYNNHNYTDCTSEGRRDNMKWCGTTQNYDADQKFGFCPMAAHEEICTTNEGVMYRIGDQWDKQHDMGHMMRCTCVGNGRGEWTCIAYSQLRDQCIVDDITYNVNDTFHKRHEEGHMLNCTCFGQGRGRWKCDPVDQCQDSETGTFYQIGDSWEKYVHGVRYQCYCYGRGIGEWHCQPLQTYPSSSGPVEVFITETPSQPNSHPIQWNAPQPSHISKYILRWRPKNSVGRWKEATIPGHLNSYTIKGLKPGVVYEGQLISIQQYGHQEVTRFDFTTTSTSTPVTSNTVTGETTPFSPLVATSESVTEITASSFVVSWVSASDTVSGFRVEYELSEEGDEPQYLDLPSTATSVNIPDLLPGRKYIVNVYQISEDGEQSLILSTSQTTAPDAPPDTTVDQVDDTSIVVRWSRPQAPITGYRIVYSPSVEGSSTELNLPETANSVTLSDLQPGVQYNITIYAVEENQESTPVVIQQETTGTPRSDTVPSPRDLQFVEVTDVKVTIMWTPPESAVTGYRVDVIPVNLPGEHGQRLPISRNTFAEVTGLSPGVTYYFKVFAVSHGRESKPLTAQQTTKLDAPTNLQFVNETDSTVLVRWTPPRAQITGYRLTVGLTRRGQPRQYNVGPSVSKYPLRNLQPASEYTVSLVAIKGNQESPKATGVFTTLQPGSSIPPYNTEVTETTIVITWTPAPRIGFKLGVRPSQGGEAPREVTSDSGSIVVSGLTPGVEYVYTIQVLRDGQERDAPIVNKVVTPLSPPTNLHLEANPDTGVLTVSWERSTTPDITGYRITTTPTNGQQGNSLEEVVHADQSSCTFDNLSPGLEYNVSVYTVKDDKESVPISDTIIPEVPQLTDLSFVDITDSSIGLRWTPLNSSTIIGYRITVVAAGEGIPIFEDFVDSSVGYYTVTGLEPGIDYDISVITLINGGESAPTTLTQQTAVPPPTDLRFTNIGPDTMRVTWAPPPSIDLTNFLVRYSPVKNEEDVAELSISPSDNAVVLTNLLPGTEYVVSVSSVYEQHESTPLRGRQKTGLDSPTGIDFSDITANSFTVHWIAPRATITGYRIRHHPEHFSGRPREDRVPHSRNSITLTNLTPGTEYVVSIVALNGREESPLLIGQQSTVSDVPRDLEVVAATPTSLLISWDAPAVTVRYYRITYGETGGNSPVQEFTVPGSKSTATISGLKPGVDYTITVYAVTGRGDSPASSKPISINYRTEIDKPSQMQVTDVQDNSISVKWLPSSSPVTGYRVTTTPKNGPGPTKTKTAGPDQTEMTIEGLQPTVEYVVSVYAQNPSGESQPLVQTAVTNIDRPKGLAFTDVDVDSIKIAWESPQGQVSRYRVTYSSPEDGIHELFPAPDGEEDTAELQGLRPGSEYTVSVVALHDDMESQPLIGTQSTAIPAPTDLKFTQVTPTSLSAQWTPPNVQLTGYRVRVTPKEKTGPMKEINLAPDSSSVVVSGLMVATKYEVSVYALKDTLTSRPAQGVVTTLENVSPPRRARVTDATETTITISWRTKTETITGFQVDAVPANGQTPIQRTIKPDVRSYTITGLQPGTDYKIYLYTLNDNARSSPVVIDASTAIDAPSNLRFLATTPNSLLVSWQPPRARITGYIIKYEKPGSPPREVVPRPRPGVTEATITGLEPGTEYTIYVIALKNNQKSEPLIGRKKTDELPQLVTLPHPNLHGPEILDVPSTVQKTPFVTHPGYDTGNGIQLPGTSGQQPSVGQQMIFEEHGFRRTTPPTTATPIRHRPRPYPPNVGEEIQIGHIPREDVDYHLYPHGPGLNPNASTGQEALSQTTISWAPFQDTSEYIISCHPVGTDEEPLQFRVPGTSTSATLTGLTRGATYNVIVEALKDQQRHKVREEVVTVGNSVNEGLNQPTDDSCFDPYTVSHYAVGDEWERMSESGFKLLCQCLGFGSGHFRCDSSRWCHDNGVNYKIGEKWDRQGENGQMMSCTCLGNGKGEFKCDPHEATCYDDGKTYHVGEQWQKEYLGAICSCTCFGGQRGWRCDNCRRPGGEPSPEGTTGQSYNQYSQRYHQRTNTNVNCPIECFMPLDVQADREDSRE
In the next test the target is α 1-antitrypsin (Homo sapiens, UniProt P01009). Description: IdeS cleavage of other human proteins: α 1-antitrypsin. The format is biochemical.
α 1-antitrypsin, sequence (P01009 25-418): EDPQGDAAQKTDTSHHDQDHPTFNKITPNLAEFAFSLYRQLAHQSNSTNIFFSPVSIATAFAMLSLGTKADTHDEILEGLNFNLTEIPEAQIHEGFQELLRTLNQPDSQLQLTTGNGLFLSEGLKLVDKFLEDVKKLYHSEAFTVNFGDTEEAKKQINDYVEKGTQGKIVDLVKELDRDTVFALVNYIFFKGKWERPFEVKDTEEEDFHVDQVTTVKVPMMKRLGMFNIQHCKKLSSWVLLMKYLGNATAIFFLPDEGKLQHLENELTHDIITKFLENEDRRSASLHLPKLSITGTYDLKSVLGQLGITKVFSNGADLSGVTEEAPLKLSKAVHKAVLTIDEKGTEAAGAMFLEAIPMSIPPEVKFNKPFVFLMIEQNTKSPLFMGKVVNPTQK
Test [4] concerns the target T6, antimicrobial peptide LL-37 (Homo sapiens, UniProt P49913).
T6 construct: antimicrobial peptide LL-37
T6 sequence (P49913 134-170 limits assumed): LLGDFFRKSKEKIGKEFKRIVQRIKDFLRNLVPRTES
Description: IdeS activity towards peptides: LL-37. It counts as biochemical.

B1: IdeS: new extracellular cysteine protease produced by S. pyogenes, highly specific for IgG; SEQ ID NO: 1 (protein)
chain: DSFSANQEIRYSEVTPYHVTSVWTKGVTPPANFTQGEDVFHAPYVANQGWYDITKTFNGKDDLLCGAATAGNMLHWWFDQNKDQIKRYLEEHPEKQKINFNGEQMFDVKEAIDTKNHQLDSKLFEYFKEKAFPYLSTKHLGVFPDHVIDMFINGYRLSLTNHGPTPVKEGSKDPRGGIFDAVFTRGDQSKLLTSRHDFKEKNLKEISDLIKKELTEGKALGLSHTYANVRINHVINLWGADFDSNGNLKAIYVTDSDSNASIGMKKYFVGVNSAGKVAISAKEIKEDNIGAQVLGLFTLSTGQDSWNQTN
modifications: S. Pyogenes
On to B1, for which the “cleavage products, laminin” value with laminin is given as “No cleavage products could be detected”. For the same molecule, the “cleavage products, cystatin C from mouse” value with cystatin C [1] is listed as “No cleavage products could be observed”. In addition, the “cleavage products, cystatin D” value with cystatin D is given as “No cleavage products could be detected”. The “cleavage products, lactoferrin” value with lactoferrin was “No cleavage products could be detected”. Further, the “cleavage products, albumin” value with albumin is “No cleavage products could be detected”. Further, the “degradation of human IgM” value with human IgM is “only IgG was degraded”. Further, in the test with H-kininogen, the “cleavage products, H-kininogen” value is on record as “No cleavage products could be detected”. Further, in the test with aprotinin, the “cleavage products, aprotinin” value was “No cleavage products could be detected”. The “cleavage of murine IgG” value with murine IgG is on record as “not murine IgG”. Moreover, the “cleavage products, cystatin C from rat” value with cystatin C [2] is reported as “No cleavage products could be observed”. Also, in the test with cystatin C [3], the “cleavage products, cystatin C from chicken” value is recorded as “No cleavage products could be observed”. Moreover, the “degradation of human IgE” value in the test on human IgE is “only IgG was degraded”. In addition, the “cleavage of rabbit IgG” value in the test with rabbit IgG is listed as “cleave”. Further, the “digestion of IgG2 compared to the other subclasses” value in the test with IgG2 is “less efficiently digested”. In addition, the “cleavage products, fibronectin” value in the test with fibronectin is “No cleavage products could be detected”. The “cleavage products, α 1-antitrypsin” value with α 1-antitrypsin was “No cleavage products could be detected”. The “degradation of LL-37” value in test [4] is recorded as “did not reveal any degradation”.

Values taken from patent US7666582B2, “IdeS, an IgG-degrading enzyme of Streptococcus pyogenes” (Hansa Medical Research AB, priority 2001, dated 2010).
